From the supplement of paper PMC9112550, “Optimization of the antimicrobial peptide Bac7 by deep mutational scanning” (BMC Biology, 2022) come the findings set out here.
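Note: peptides expressed intracellularly from a pBAD plasmid library in pooled LB shake-flask culture, induced with 0.3% L-arabinose, DNA abundance read by NGS, three biological replicates, DESeq2 with apeglm shrinkage.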

The subject of the data set is Escherichia coli TOP10. The data set can be described thus: shrunken log2 fold change of peptide-encoding DNA abundance (4.5 h post-induction vs induction); higher = less antimicrobial activity (less host growth inhibition). Conditions: time post-induction: 4.5 h; library: site-saturation at positions 5, 18, 19, 20.
With RRIRWRPPRLPRPRPRPYAQPRP, the “shrunken log2 fold change” value is -0.189.

Consider RRIRSRPPRLPRPRPRPYKSPRP, for which the “shrunken log2 fold change” value is -0.694.

Regarding RRIRWRPPRLPRPRPRPSHDPRP, the “shrunken log2 fold change” value turned out to be 0.023.

Turning to RRIRCRPPRLPRPRPRPSEHPRP, the “shrunken log2 fold change” value is -0.236.

For the sequence RRIRDRPPRLPRPRPRPETRPRP, the “shrunken log2 fold change” value stood at 1.11.

As for RRIRWRPPRLPRPRPRPIRKPRP, the “shrunken log2 fold change” value worked out at 0.636.

For RRIRMRPPRLPRPRPRPFGQPRP, the “shrunken log2 fold change” value was 0.0853.

Regarding RRIRYRPPRLPRPRPRPWHEPRP, the “shrunken log2 fold change” value is -0.01.

With RRIRPRPPRLPRPRPRPSKSPRP, the “shrunken log2 fold change” value is -0.123.

As to RRIRVRPPRLPRPRPRPAYNPRP, the “shrunken log2 fold change” value was -0.394.

For the sequence RRIRDRPPRLPRPRPRPTECPRP, the “shrunken log2 fold change” value is -0.0183.

With RRIRFRPPRLPRPRPRPPNKPRP, the “shrunken log2 fold change” value amounted to 0.1.

For the sequence RRIRFRPPRLPRPRPRPDDDPRP, the “shrunken log2 fold change” value came to 0.114.

Consider RRIRTRPPRLPRPRPRPERFPRP, for which the “shrunken log2 fold change” value is 0.0107.

Turning to RRIRQRPPRLPRPRPRPLISPRP, the “shrunken log2 fold change” value is -0.173.

RRIRMRPPRLPRPRPRPHHYPRP: the “shrunken log2 fold change” value was -0.51.

With RRIRARPPRLPRPRPRPLEKPRP, the “shrunken log2 fold change” value is 0.439.

With RRIRRRPPRLPRPRPRPENPPRP, the “shrunken log2 fold change” value came out at 0.541.

Regarding RRIRHRPPRLPRPRPRPYRNPRP, the “shrunken log2 fold change” value is -0.191.

In the case of RRIRIRPPRLPRPRPRPRLPPRP, the “shrunken log2 fold change” value worked out at 0.161.

With RRIRSRPPRLPRPRPRPRHEPRP, the “shrunken log2 fold change” value is -0.0516.

On to RRIRERPPRLPRPRPRPFIGPRP, for which the “shrunken log2 fold change” value is -0.0528.

Take RRIRFRPPRLPRPRPRPMPNPRP: the “shrunken log2 fold change” value was 0.0592.

Regarding RRIRHRPPRLPRPRPRPNGWPRP, the “shrunken log2 fold change” value came out at 0.42.

As for RRIRNRPPRLPRPRPRPVRLPRP, the “shrunken log2 fold change” value is 0.0814.

RRIRWRPPRLPRPRPRPAIRPRP: the “shrunken log2 fold change” value stood at 0.639.

As to RRIRDRPPRLPRPRPRPFKHPRP, the “shrunken log2 fold change” value was -0.264.

Turning to RRIRDRPPRLPRPRPRPFTWPRP, the “shrunken log2 fold change” value is -0.12.

On to RRIRMRPPRLPRPRPRPMCIPRP, for which the “shrunken log2 fold change” value is -0.296.

With RRIRVRPPRLPRPRPRPVMNPRP, the “shrunken log2 fold change” value was -0.19.

As to RRIRGRPPRLPRPRPRPPNMPRP, the “shrunken log2 fold change” value stood at 0.0204.

With RRIRARPPRLPRPRPRPSIAPRP, the “shrunken log2 fold change” value was found to be 0.186.

Turning to RRIRHRPPRLPRPRPRPYEAPRP, the “shrunken log2 fold change” value was -0.445.

As for RRIRHRPPRLPRPRPRPMHTPRP, the “shrunken log2 fold change” value worked out at 0.0398.

RRIRMRPPRLPRPRPRPGPTPRP: the “shrunken log2 fold change” value worked out at 1.54.

As to RRIRTRPPRLPRPRPRPEWTPRP, the “shrunken log2 fold change” value amounted to 0.188.

As to RRIRMRPPRLPRPRPRPHDPPRP, the “shrunken log2 fold change” value is 0.000689.

For RRIRRRPPRLPRPRPRPAPYPRP, the “shrunken log2 fold change” value turned out to be 0.408.

For the sequence RRIRARPPRLPRPRPRPSCSPRP, the “shrunken log2 fold change” value was 0.0274.

For RRIRIRPPRLPRPRPRPSQWPRP, the “shrunken log2 fold change” value is -1.15.

For the sequence RRIRMRPPRLPRPRPRPDIMPRP, the “shrunken log2 fold change” value was 2.19.

As to RRIRERPPRLPRPRPRPCRLPRP, the “shrunken log2 fold change” value was -0.197.

Consider RRIRNRPPRLPRPRPRPSIYPRP, for which the “shrunken log2 fold change” value was -0.449.

As for RRIRLRPPRLPRPRPRPWLNPRP, the “shrunken log2 fold change” value was -0.183.

For RRIRDRPPRLPRPRPRPAFTPRP, the “shrunken log2 fold change” value was -0.155.

As to RRIRGRPPRLPRPRPRPCCDPRP, the “shrunken log2 fold change” value came to 0.769.

In the case of RRIRHRPPRLPRPRPRPCAIPRP, the “shrunken log2 fold change” value is -0.303.

On to RRIRMRPPRLPRPRPRPLEGPRP, for which the “shrunken log2 fold change” value stood at 0.109.

On to RRIRCRPPRLPRPRPRPEICPRP, for which the “shrunken log2 fold change” value was determined as 0.0631.

In the case of RRIRNRPPRLPRPRPRPPFIPRP, the “shrunken log2 fold change” value was -0.551.

For RRIRIRPPRLPRPRPRPADEPRP, the “shrunken log2 fold change” value was -0.08.

On to RRIRIRPPRLPRPRPRPIGKPRP, for which the “shrunken log2 fold change” value is -0.13.

Turning to RRIRDRPPRLPRPRPRPFIYPRP, the “shrunken log2 fold change” value is -0.115.

RRIRLRPPRLPRPRPRPTTWPRP: the “shrunken log2 fold change” value is 0.0965.

Consider RRIRDRPPRLPRPRPRPPEMPRP, for which the “shrunken log2 fold change” value stood at 0.78.

For the sequence RRIRRRPPRLPRPRPRPPLQPRP, the “shrunken log2 fold change” value came out at 0.682.

For the sequence RRIRVRPPRLPRPRPRPFKYPRP, the “shrunken log2 fold change” value is -0.0213.

Take RRIRHRPPRLPRPRPRPPPNPRP: the “shrunken log2 fold change” value is 0.814.

For the sequence RRIRIRPPRLPRPRPRPQLFPRP, the “shrunken log2 fold change” value was 0.667.

Consider RRIRKRPPRLPRPRPRPCIQPRP, for which the “shrunken log2 fold change” value was 0.0636.

On to RRIRTRPPRLPRPRPRPYLQPRP, for which the “shrunken log2 fold change” value was -0.525.

Turning to RRIRWRPPRLPRPRPRPDWPPRP, the “shrunken log2 fold change” value turned out to be 0.332.

For the sequence RRIRHRPPRLPRPRPRPMHEPRP, the “shrunken log2 fold change” value was 0.0983.

Take RRIRWRPPRLPRPRPRPHCYPRP: the “shrunken log2 fold change” value is -0.0542.

As to RRIRERPPRLPRPRPRPMAAPRP, the “shrunken log2 fold change” value came out at 0.421.

Turning to RRIRRRPPRLPRPRPRPAYDPRP, the “shrunken log2 fold change” value turned out to be 0.0406.

On to RRIRSRPPRLPRPRPRPMCSPRP, for which the “shrunken log2 fold change” value is -0.0814.

For RRIRKRPPRLPRPRPRPESAPRP, the “shrunken log2 fold change” value amounted to 1.72.

As for RRIRDRPPRLPRPRPRPTFRPRP, the “shrunken log2 fold change” value is -0.0707.

As to RRIRYRPPRLPRPRPRPIFQPRP, the “shrunken log2 fold change” value was -0.568.

In the case of RRIRGRPPRLPRPRPRPAQAPRP, the “shrunken log2 fold change” value amounted to 0.505.

Regarding RRIRARPPRLPRPRPRPTGRPRP, the “shrunken log2 fold change” value is 0.215.

Turning to RRIRMRPPRLPRPRPRPAYYPRP, the “shrunken log2 fold change” value was -0.3.

With RRIRNRPPRLPRPRPRPHWPPRP, the “shrunken log2 fold change” value was found to be 0.0957.

Take RRIRSRPPRLPRPRPRPRCKPRP: the “shrunken log2 fold change” value is -0.134.

With RRIRKRPPRLPRPRPRPKKKPRP, the “shrunken log2 fold change” value was found to be 0.0709.

Consider RRIRNRPPRLPRPRPRPPNDPRP, for which the “shrunken log2 fold change” value was 0.182.

Regarding RRIRRRPPRLPRPRPRPTSKPRP, the “shrunken log2 fold change” value is 0.162.

In the case of RRIRYRPPRLPRPRPRPVVTPRP, the “shrunken log2 fold change” value is -0.351.

RRIRSRPPRLPRPRPRPGNFPRP: the “shrunken log2 fold change” value worked out at 0.00825.

For the sequence RRIRMRPPRLPRPRPRPDCLPRP, the “shrunken log2 fold change” value turned out to be 1.54.

With RRIRVRPPRLPRPRPRPDTHPRP, the “shrunken log2 fold change” value is -0.214.

With RRIRERPPRLPRPRPRPPVCPRP, the “shrunken log2 fold change” value is -0.119.

Turning to RRIRARPPRLPRPRPRPYFAPRP, the “shrunken log2 fold change” value was -0.201.

In the case of RRIRTRPPRLPRPRPRPIVMPRP, the “shrunken log2 fold change” value is -0.114.

Consider RRIRGRPPRLPRPRPRPRMFPRP, for which the “shrunken log2 fold change” value was 0.837.

RRIRDRPPRLPRPRPRPGYRPRP: the “shrunken log2 fold change” value is 0.000964.

Regarding RRIRHRPPRLPRPRPRPVVPPRP, the “shrunken log2 fold change” value was -0.0888.

Take RRIRQRPPRLPRPRPRPNDIPRP: the “shrunken log2 fold change” value is -0.348.

Turning to RRIRGRPPRLPRPRPRPHAGPRP, the “shrunken log2 fold change” value amounted to 1.06.

For RRIRRRPPRLPRPRPRPVHVPRP, the “shrunken log2 fold change” value was found to be 0.0562.

As for RRIRNRPPRLPRPRPRPDSAPRP, the “shrunken log2 fold change” value is -0.126.

For the sequence RRIRKRPPRLPRPRPRPYHSPRP, the “shrunken log2 fold change” value was 2.07.

Regarding RRIRTRPPRLPRPRPRPCFIPRP, the “shrunken log2 fold change” value is -1.05.

RRIRMRPPRLPRPRPRPELAPRP: the “shrunken log2 fold change” value worked out at 3.6.

Take RRIRWRPPRLPRPRPRPIVCPRP: the “shrunken log2 fold change” value is 0.0105.

With RRIRRRPPRLPRPRPRPECSPRP, the “shrunken log2 fold change” value was -0.121.

For the sequence RRIRMRPPRLPRPRPRPDHRPRP, the “shrunken log2 fold change” value was -0.279.

In the case of RRIRVRPPRLPRPRPRPIFWPRP, the “shrunken log2 fold change” value was 0.00106.

Take RRIRMRPPRLPRPRPRPGHHPRP: the “shrunken log2 fold change” value came out at 0.209.

Take RRIRDRPPRLPRPRPRPPENPRP: the “shrunken log2 fold change” value was 0.856.

For the sequence RRIRHRPPRLPRPRPRPKRPPRP, the “shrunken log2 fold change” value was found to be 0.354.

For RRIRARPPRLPRPRPRPKELPRP, the “shrunken log2 fold change” value was found to be 0.404.

With RRIRYRPPRLPRPRPRPPTVPRP, the “shrunken log2 fold change” value is -0.146.

As to RRIRRRPPRLPRPRPRPAGIPRP, the “shrunken log2 fold change” value worked out at 0.352.

For the sequence RRIRLRPPRLPRPRPRPIKCPRP, the “shrunken log2 fold change” value is -0.152.

For the sequence RRIRDRPPRLPRPRPRPTPEPRP, the “shrunken log2 fold change” value was found to be 0.152.

RRIRRRPPRLPRPRPRPWGVPRP: the “shrunken log2 fold change” value came out at 0.405.

With RRIRMRPPRLPRPRPRPRWEPRP, the “shrunken log2 fold change” value was 0.814.

RRIRHRPPRLPRPRPRPCDTPRP: the “shrunken log2 fold change” value is -0.214.

RRIRVRPPRLPRPRPRPVTYPRP: the “shrunken log2 fold change” value was -0.288.

Consider RRIRQRPPRLPRPRPRPEHQPRP, for which the “shrunken log2 fold change” value was -0.0955.

With RRIRARPPRLPRPRPRPDYIPRP, the “shrunken log2 fold change” value was 0.00625.

Consider RRIRQRPPRLPRPRPRPVWSPRP, for which the “shrunken log2 fold change” value is -0.176.

RRIRNRPPRLPRPRPRPCGRPRP: the “shrunken log2 fold change” value is -0.0266.

As to RRIRIRPPRLPRPRPRPVDQPRP, the “shrunken log2 fold change” value was -0.0969.

For the sequence RRIRIRPPRLPRPRPRPWFNPRP, the “shrunken log2 fold change” value was -1.25.

For the sequence RRIRVRPPRLPRPRPRPPCIPRP, the “shrunken log2 fold change” value is -0.00689.

As for RRIRYRPPRLPRPRPRPFNMPRP, the “shrunken log2 fold change” value is -0.202.

With RRIRQRPPRLPRPRPRPLDPPRP, the “shrunken log2 fold change” value was -0.408.

As for RRIRHRPPRLPRPRPRPPYCPRP, the “shrunken log2 fold change” value was -0.0539.

For the sequence RRIRERPPRLPRPRPRPRNQPRP, the “shrunken log2 fold change” value is -0.312.

In the case of RRIRNRPPRLPRPRPRPSWTPRP, the “shrunken log2 fold change” value was -0.211.

For RRIRQRPPRLPRPRPRPDEAPRP, the “shrunken log2 fold change” value is -0.0116.

Regarding RRIRCRPPRLPRPRPRPASAPRP, the “shrunken log2 fold change” value is 0.248.
